What was measured:
[1] = molecular target: T1, A/Vietnam/1203/2004 HA globular head (Asp-55–Glu-271) (Influenza A virus A/Vietnam/1203/2004 …, UniProt Q5EP31, strain); experiment: cell-based or functional assay
[2] = molecular target: T2, A/Thailand/1(KAN-1)/2004 HA globular head (Asp-55–Glu-271) (Influenza A virus …, strain); experiment: cell-based or functional assay
[3] = molecular target: A/Turkey/65596/2006 HA globular head (Asp-55–Glu-271) (Influenza A virus A/Turkey/65596/2006 …, strain); experiment: cell-based or functional assay
[4] = molecular target: T1, A/Vietnam/1203/2004 HA globular head …; experiment: SPR; details: both partners purified
[5] = molecular target: T2, A/Thailand/1(KAN-1)/2004 HA globular …; experiment: SPR; details: both partners purified
[6] = molecular target: T3, A/Beijing/01/2003 HA globular head (Asp-55–Glu-271) (Influenza A virus A/Beijing/01/2003 …, UniProt A5YTS6, strain); experiment: cell-based or functional assay
[7] = molecular target: T4, A/Anhui/1/2005 HA globular head (Asp-55–Glu-271) (Influenza A virus A/Anhui/1/2005 (H5N1), UniProt Q1WDM0, strain); experiment: cell-based or functional assay
[8] = molecular target: T3, A/Beijing/01/2003 HA globular head …; experiment: SPR; details: both partners purified
[9] = molecular target: T4, A/Anhui/1/2005 HA globular head …; experiment: SPR; details: both partners purified

B1: FLD21.140 (antibody, V domains shown)
VH: QVQLQESGPGLVKPSQTLSLTCTVSGGSISSGTYYWSWIRHHPGKGLEWIGYIYHSGSAYYNPSLESRVTMSVDTSKNQFSLKLSSVTAADTAIYYCARAENLLSPYLAEGFDPWGQGTLVTVSS
VL: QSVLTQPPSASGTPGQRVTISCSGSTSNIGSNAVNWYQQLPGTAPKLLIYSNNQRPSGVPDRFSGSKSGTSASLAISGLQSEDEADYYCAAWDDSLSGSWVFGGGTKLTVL
neutralisation IC50, pseudovirus with the whole HA of this strain [1]: 1 ng/mL | neutralisation IC50, pseudovirus with the whole HA of this strain [2]: 8 ng/mL | neutralisation IC50, pseudovirus with the whole HA of this strain [3]: 1 ng/mL

B2: FLD21.140 Fab (Fab, V domains shown)
VH: QVQLQESGPGLVKPSQTLSLTCTVSGGSISSGTYYWSWIRHHPGKGLEWIGYIYHSGSAYYNPSLESRVTMSVDTSKNQFSLKLSSVTAADTAIYYCARAENLLSPYLAEGFDPWGQGTLVTVSS
VL: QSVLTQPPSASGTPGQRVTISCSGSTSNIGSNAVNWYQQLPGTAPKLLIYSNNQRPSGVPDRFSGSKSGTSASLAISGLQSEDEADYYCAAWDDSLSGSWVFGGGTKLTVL
Kd [4]: 0.702 nM | Kd [5]: 1 nM

B3: AVFluIgG03 (antibody, V domains shown)
VH: EVQLLESGGGLVQPGGSLRVSCTNSGFTFSNYAMSWVRQAPGKGLEWVSAISGNGGSGTYYADSVKGRFTISRDNSKNTMYLQMNSLRAEDTAVYYCVRDDSYDGGGHYGLHNWFDSWGQGTLVTVSS
VL: SVLTQPPSVSGAPGQRVTISCTGSSSNIGAGYDVHWYQQLPGTAPKLLIYGNSNRPSGVPDRFSGSKSGTSASLAITGLQAEDEADYYCQSYDSSVVVFGGGTKLEIK
neutralisation IC50, pseudovirus with the whole HA of this strain [6]: 3 ng/mL | neutralisation IC50, pseudovirus with the whole HA of this strain [7]: 2 ng/mL

B4: AVFluIgG03 Fab (Fab, V domains shown)
VH: EVQLLESGGGLVQPGGSLRVSCTNSGFTFSNYAMSWVRQAPGKGLEWVSAISGNGGSGTYYADSVKGRFTISRDNSKNTMYLQMNSLRAEDTAVYYCVRDDSYDGGGHYGLHNWFDSWGQGTLVTVSS
VL: SVLTQPPSVSGAPGQRVTISCTGSSSNIGAGYDVHWYQQLPGTAPKLLIYGNSNRPSGVPDRFSGSKSGTSASLAITGLQAEDEADYYCQSYDSSVVVFGGGTKLEIK
notes: source: cut from the purified IgG with Lys-C
Kd [8]: 25 nM | Kd [9]: 12.6 nM

Reference: paper PMC6200926 (The Journal of Biological Chemistry, 2018)
